From patent publication US20220289837A1, “Cystic Fibrosis Transmembrane Conductance Regulator Stabilizing Agents” (VIB VZW, priority 2019, published 2022) come the findings set out here.

Format in all cases: cell-based
Test [1] concerns the target T1, 3HA-F508del-CFTR (Homo sapiens, UniProt P13569, DEL508-508).
T1 construct: expressed in transfected cells
Put plainly: Cell-surface expression of F508del-CFTR in HEK-293T cells by flow cytometry. The conditions noted are these: extracellular 3HA-tag, Nb transfected and/or VX-809. The procedure: (§1) HEK293T cells expressing F508del-CFTR with an engineered extracellular 3HA tag were transiently transfected with the stabilizing Nbs, as well as control Nbs. The effect on F508del mutant CFTR expression and maturation was measured by flow cytometry, Western Blot and fluorescence microscopy. Next, the effect of the transfection of each Nb was measured in the absence or presence of the correctors VX-809 (lumacaftor) or VX-661 (Tezacaftor).
(§2) Stable cell lines were generated by lentiviral transduction as described in (Ensinck, et al. 2020). CFTR variants were cloned to contain a triple hemagglutinin (3HA) tag in the fourth extracellular loop (EC-loop) of CFTR (Sharma, et al. 2004) for maturation and trafficking studies. For HS-YFP quenching studies, double stable cell lines were generated, co-expressing stable HS-YFP (Galietta, et al. 2001).

Test [2] concerns the target T1, 3HA-F508del-CFTR. Put plainly: CFTR protein maturation by Western Blot in 3HA-F508del-CFTR HEK-293T cells. As to conditions: for band C (fully glycosylated mature CFTR): FIG. 15, Nb transfected and/or VX-809; for mature CFTR protein band (band C): FIG. 17, Nb transfected and/or VX-661. How it is done:
as §1, §2
Cell extracts were separated by SDS-PAGE on 7.5% polyacrylamide gel and transferred to nitrocellulose membrane (Bio-Rad) for immunodetection. After blocking for 1 h with 5% bovine serum albumin (BSA) in Tris-buffered saline added 0.05% Tween-20 (TBST), CFTR was detected using monoclonal antibody mAb 596, IgG2b (CFTR Antibody Distribution Program, dilution 1:46) for 1 h in blocking buffer. Blot was washed 3 times 5 min and incubated with anti-mouse-HRP antibody (Millipore, catalogue number: AP308P, 0.2 μg/ml) for 1 h in TBST. Membrane was washed 3 times for 5 min. CFTR was visualized by chemiluminescence using Luminata Forte Western HRP Substrate (Millipore) and detected with ImageQuant 400 (GE Healthcare).

The target in test [3] is T1, 3HA-F508del-CFTR. In words: Immunostaining of cell-surface expression in F508del-CFTR HEK-293T cells. The procedure:
as §2
For PM staining, cells were blocked with 1% BSA-PBS and incubated with HA.11 antibody (#901515, Biolegend 1:1000) at 4° C. on living cells. Next, cells were fixed (4% PFA) followed by Alexa-488 secondary antibody (#A-11001, Thermo Fischer Scientific, 1:500). Nuclei were stained with DAPI (4′,6-diamidino-2-fenylindole, #D1306, Thermo Fischer Scientific, 1:2000) and sections analyzed by confocal microscopy.

T1 sequence (P13569 with tags, fused parts or gaps DEL508-508): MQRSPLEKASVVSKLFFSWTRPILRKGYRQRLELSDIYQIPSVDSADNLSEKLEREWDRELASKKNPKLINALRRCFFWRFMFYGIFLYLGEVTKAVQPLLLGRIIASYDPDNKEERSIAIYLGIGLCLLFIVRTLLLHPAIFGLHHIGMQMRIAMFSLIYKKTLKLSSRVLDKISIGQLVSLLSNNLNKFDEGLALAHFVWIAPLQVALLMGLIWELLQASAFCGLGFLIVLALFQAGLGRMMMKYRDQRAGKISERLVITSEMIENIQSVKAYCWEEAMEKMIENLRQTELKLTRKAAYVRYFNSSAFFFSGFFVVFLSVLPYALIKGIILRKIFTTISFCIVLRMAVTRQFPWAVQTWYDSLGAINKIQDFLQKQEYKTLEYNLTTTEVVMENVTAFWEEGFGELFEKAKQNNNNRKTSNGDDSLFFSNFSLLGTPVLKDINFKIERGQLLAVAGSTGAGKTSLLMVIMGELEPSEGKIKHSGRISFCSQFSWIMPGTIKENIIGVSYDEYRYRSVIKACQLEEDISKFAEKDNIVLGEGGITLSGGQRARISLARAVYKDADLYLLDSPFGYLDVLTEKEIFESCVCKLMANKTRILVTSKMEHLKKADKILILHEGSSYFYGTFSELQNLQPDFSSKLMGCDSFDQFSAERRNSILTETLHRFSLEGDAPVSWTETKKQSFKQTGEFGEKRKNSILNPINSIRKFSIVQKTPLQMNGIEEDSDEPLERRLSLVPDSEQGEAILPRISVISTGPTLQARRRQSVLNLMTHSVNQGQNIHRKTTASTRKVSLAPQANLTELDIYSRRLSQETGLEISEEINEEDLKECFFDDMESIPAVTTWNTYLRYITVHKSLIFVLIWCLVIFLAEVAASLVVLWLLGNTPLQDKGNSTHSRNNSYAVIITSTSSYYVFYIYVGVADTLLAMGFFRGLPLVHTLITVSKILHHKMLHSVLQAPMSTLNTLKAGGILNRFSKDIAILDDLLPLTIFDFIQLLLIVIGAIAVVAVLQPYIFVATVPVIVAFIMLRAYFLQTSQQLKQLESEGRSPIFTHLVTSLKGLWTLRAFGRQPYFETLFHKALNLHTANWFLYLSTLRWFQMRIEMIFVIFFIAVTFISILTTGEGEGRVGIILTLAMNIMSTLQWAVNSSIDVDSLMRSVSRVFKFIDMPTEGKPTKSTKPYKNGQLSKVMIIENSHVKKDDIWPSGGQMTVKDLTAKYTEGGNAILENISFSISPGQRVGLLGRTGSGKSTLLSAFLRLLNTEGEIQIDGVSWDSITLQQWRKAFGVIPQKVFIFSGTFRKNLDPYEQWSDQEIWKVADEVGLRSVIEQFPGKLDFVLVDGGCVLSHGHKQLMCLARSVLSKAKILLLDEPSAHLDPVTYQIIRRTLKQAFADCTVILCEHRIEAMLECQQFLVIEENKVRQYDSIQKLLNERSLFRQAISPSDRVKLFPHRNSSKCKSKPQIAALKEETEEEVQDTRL

B1: T8: nanobody, SEQ ID NO:7, binds epitope 2 including F508, stabilizes WT CFTR but not F508del (protein)
VHH: QVQLQESGGGLVQPGGSLRLSCAASGSTSSINAMGWYRQAPGKQREPVAISSSGGDTRYAEPVKGRFTISRDNAQNKVYLQMNSLKPEDTAVYYCWLNWGRTSVNSWGQGTQVTVSS
modifications: T8 Nanobody amino acid sequence
Regarding B1, the “cell-surface expression of F508del-CFTR” value with 3HA-F508del-CFTR [1] is “No effect”. Further, in the test with 3HA-F508del-CFTR [2], the “band C (fully glycosylated mature CFTR)” value was “no effect”.

B2: D12: NBD1-specific CFTR-stabilizing nanobody, SEQ ID NO:2, binds epitope 1 (protein)
VHH: QVQLQESGGGLVQAGSSLRLACAATGSIRSINNMGWYRQAPGKQRGMVAIITRVGNTDYADSVKGRFTISRDNAKNTVYLQMNSLKPEDTATYYCHAEITEQSRPFYLTDDYWGQGTQVTVSS
modifications: D12 Nanobody amino acid sequence
For the molecule B2, the “cell-surface expression of F508del-CFTR” value with 3HA-F508del-CFTR [1] was “moderate increase in surface expression”.

B3: G5: NBD1-binding nanobody, SEQ ID NO:5, same binding site as T2a, T27 and D12 (protein)
VHH: QVQLQESGGGLVQAGGSLRLACAATGSIRNINTMGWYRQAPGKQRDMVAFITRAGNTDYADSVKGRFTISRDNARNTVYLRMNSLKPEDTATYYCHAEIAERSRPFYLTDDYWGQGTQVTVSS
modifications: G5 Nanobody amino acid sequence
In the case of B3, the “cell-surface expression of F508del-CFTR” value with 3HA-F508del-CFTR [1] is recorded as “moderate increase in surface expression”.

B4: G3a: non-stabilizing nanobody, SEQ ID NO:50, recognizes the structurally diverse region of NBD1 (protein)
VHH: QVQLQESGGGLVQAGGSLRLSCTASGRAFSWYVMGWFRQAPGKEREFVATVSGNGSRRDYADSVKGRFTISRDNAKNTVYLQMNSLKPEDTAVYYCAASSTYYYTDPEKYDYWGQGTQVTVSS
modifications: G3a Nanobody
For the molecule B4, in the test with 3HA-F508del-CFTR [1], the “cell-surface expression of F508del-CFTR” value is listed as “No effect”. Also, in the test with 3HA-F508del-CFTR [2], the “band C (fully glycosylated mature CFTR)” value is recorded as “no effect” and the “mature CFTR protein band (band C)” value was “detectable”.

B5: T2a: NBD1-specific CFTR-stabilizing nanobody, SEQ ID NO:3, binds epitope 1 (protein)
VHH: QVQLQESGGGLVQAGGSLRLSCAASGSIFRIDAMGWYRQAPGKQRELVAHSTSGGSTDYADSVKGRFTISRDNAKNTVYLQMNSLKPEDTAVYYCNADVRTRWYASNNYWGQGTQVTVSS
modifications: T2a Nanobody amino acid sequence
On to B5, for which the “cell-surface expression of F508del-CFTR” value with 3HA-F508del-CFTR [1] is “moderate increase in surface expression”. Besides, in the test with 3HA-F508del-CFTR [2], the “band C (fully glycosylated mature CFTR)” value is given as “detectable” and the “mature CFTR protein band (band C)” value is reported as “only a minor effect”. In addition, in the test with 3HA-F508del-CFTR [3], the cell-surface immunostaining result is “moderate staining”.
